Experimental data: paper PMC3433420
Values joined by “and” are separate entries in the source; they are usually repeats but may differ in a detail not shown here. Equal values may be shown once. Read-outs that look alike come from different tables or passages of the source.

Tests used:
[1] = target: PLCG1 C-terminal SH2 domain (human); experiment: SPR; Biacore 3000; 6X His SH2 proteins held on a Ni-NTA chip, dye-free peptides in solution, equilibrium
[2] = target: ErbB1 pY801 phosphopeptide, rhodamine-labelled (human); experiment: fluorescence polarisation; saturation binding in solution: rhodamine peptide fixed at 10 nM, protein titrated 0.002-10 uM, 20 min at room temperature; assay buffer 20 mM HEPES, 100 mM KCl, 0.1% Tween-20, 5 mM DTT, pH 7.8; apparent KD
[3] = target: ErbB2 pY685 phosphopeptide, rhodamine-labelled (human); experiment: as above
[4] = target: MET pY1313 phosphopeptide, rhodamine-labelled; experiment: as above
ABL2 (Homo sapiens) [5] = target: ABL2 (Homo sapiens) (UniProt P42684); conditions: cited from earlier work
Chain of ABL2 (Homo sapiens) (P42684 168-268): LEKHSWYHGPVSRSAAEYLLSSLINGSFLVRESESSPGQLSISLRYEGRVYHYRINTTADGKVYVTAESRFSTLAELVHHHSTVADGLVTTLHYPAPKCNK

GRB2 (Homo sapiens) = GRB2 (Homo sapiens) (UniProt P62993); conditions: cited from earlier work
Chain of GRB2 (Homo sapiens) (P62993 55-157): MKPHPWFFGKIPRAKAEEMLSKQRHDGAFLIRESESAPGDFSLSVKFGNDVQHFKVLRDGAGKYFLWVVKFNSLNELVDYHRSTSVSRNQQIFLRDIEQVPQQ

ABL1 (Homo sapiens) = ABL1 (Homo sapiens) (UniProt P00519); conditions: cited from earlier work
Chain of ABL1 (Homo sapiens) (P00519 122-222): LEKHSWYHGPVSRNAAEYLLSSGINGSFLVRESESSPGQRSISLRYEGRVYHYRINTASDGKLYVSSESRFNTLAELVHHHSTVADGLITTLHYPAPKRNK

NCK2 (Homo sapiens) = NCK2 (Homo sapiens) (UniProt O43639); conditions: cited from earlier work
Chain of NCK2 (Homo sapiens) (O43639 280-380): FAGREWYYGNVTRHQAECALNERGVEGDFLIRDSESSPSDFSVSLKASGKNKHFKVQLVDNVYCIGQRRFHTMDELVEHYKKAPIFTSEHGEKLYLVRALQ

SHC1-PTB (Homo sapiens) [6] = target: SHC1-PTB (Homo sapiens) (UniProt P29353); conditions: cited from earlier work
Chain of SHC1-PTB (Homo sapiens) (P29353 483-583): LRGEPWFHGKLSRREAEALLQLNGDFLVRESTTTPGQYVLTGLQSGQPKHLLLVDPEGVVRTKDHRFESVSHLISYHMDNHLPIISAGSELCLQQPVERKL

SYK-NC (Homo sapiens) [7] = target: SYK-NC (Homo sapiens) (UniProt P43405); conditions: cited from earlier work
ABL2 (Homo sapiens) [8] = target: ABL2 (Homo sapiens) (UniProt P42684); conditions: cited from earlier work; remark: listed apart in the source
ABL2 (Homo sapiens) [9] = target: ABL2 (Homo sapiens) (UniProt P42684); conditions: cited from earlier work; remark: listed apart in the source
CRK (Homo sapiens) [10] = target: CRK (Homo sapiens) (UniProt P46108); conditions: cited from earlier work
Chain of CRK (Homo sapiens) (P46108 8-123): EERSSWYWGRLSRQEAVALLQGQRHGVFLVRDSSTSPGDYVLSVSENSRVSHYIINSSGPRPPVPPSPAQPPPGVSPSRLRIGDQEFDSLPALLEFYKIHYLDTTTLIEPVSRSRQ

RASA1-N (Homo sapiens) [11] = target: RASA1-N (Homo sapiens) (UniProt P20936); conditions: cited from earlier work
Chain of RASA1-N (Homo sapiens) (P20936 176-446): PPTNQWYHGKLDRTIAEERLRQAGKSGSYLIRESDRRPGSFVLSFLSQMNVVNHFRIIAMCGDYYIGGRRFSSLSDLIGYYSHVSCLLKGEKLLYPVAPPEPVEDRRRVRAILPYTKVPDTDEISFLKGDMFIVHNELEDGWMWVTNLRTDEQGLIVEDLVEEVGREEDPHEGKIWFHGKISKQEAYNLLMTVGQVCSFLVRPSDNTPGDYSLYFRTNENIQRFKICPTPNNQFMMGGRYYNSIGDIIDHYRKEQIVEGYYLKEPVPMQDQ

YES1 (Homo sapiens) [12] = target: YES1 (Homo sapiens) (UniProt P07947); conditions: cited from earlier work
Chain of YES1 (Homo sapiens) (P07947 153-260): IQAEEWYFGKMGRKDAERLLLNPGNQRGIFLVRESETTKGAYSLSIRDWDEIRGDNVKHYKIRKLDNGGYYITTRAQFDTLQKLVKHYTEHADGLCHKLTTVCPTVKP

BMX (Homo sapiens) = BMX (Homo sapiens) (UniProt P51813); conditions: cited from earlier work
Chain of BMX (Homo sapiens) (P51813 291-397): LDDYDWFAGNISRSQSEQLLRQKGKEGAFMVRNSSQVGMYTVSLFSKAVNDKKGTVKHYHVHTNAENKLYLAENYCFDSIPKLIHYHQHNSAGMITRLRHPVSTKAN

SHB (Homo sapiens) = SHB (Homo sapiens) (UniProt Q15464); conditions: cited from earlier work
Chain of SHB (Homo sapiens) (Q15464 405-509): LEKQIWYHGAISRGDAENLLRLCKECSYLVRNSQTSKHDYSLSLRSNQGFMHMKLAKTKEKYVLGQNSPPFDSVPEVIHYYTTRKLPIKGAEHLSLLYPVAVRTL

CRKL (Homo sapiens) [13] = target: CRKL (Homo sapiens) (UniProt P46109); conditions: cited from earlier work
Chain of CRKL (Homo sapiens) (P46109 9-107): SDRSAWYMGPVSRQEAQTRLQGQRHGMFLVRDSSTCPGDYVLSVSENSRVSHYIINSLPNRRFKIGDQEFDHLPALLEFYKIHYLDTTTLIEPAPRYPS

TNS1 (Homo sapiens) = TNS1 (Homo sapiens) (UniProt Q9HBL0); conditions: cited from earlier work
Chain of TNS1 (Homo sapiens) (Q9HBL0 1562-1681): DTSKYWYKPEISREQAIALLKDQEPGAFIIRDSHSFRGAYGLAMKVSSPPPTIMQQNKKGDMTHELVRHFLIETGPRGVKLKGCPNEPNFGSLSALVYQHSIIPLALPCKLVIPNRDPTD

SRC (Homo sapiens) [14] = target: SRC (Homo sapiens) (UniProt P12931); conditions: cited from earlier work
[15] = target: ErbB1 Y900 non-phosphorylated peptide, rhodamine-labelled (human); experiment: fluorescence polarisation; saturation binding in solution: rhodamine peptide fixed at 10 nM, protein titrated 0.002-10 uM, 20 min at room temperature; assay buffer 20 mM HEPES, 100 mM KCl, 0.1% Tween-20, 5 mM DTT, pH 7.8; apparent KD
SYK-NC (Homo sapiens) [16] = target: SYK-NC (Homo sapiens) (UniProt P43405); conditions: cited from earlier work; remark: listed apart in the source
ABL2 (Homo sapiens) [17] = target: ABL2 (Homo sapiens) (UniProt P42684); conditions: cited from earlier work; remark: listed apart in the source
PLCG1-NC (Homo sapiens) = PLCG1-NC (Homo sapiens) (UniProt P19174); conditions: cited from earlier work
Chain of PLCG1-NC (Homo sapiens) (P19174 545-761): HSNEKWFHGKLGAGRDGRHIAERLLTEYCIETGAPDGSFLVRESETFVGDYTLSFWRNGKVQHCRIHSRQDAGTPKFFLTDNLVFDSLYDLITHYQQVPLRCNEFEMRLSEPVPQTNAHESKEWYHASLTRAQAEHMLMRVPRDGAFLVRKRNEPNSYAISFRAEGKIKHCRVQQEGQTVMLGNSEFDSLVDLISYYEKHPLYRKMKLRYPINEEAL

SH2B3 (Homo sapiens) = SH2B3 (Homo sapiens) (UniProt Q9UQQ2); conditions: cited from earlier work
Chain of SH2B3 (Homo sapiens) (Q9UQQ2 359-467): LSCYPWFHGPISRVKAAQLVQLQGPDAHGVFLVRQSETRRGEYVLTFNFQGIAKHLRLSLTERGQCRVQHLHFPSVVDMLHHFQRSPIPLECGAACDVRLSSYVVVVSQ

PIK3R3-NC (Homo sapiens) = PIK3R3-NC (Homo sapiens) (UniProt Q92569); conditions: cited from earlier work
RASA1-N (Homo sapiens) [18] = target: RASA1-N (Homo sapiens) (UniProt P20936); conditions: cited from earlier work; remark: listed apart in the source
SLA2 (Homo sapiens) = SLA2 (Homo sapiens) (UniProt Q9H6Q3); conditions: cited from earlier work
Chain of SLA2 (Homo sapiens) (Q9H6Q3 89-196): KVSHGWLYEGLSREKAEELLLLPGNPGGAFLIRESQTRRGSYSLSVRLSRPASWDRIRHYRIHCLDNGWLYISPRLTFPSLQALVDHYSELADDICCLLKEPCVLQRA

PIK3R2-NC (Homo sapiens) = PIK3R2-NC (Homo sapiens) (UniProt O00459); conditions: cited from earlier work
Chain of PIK3R2-NC (Homo sapiens) (O00459 325-721): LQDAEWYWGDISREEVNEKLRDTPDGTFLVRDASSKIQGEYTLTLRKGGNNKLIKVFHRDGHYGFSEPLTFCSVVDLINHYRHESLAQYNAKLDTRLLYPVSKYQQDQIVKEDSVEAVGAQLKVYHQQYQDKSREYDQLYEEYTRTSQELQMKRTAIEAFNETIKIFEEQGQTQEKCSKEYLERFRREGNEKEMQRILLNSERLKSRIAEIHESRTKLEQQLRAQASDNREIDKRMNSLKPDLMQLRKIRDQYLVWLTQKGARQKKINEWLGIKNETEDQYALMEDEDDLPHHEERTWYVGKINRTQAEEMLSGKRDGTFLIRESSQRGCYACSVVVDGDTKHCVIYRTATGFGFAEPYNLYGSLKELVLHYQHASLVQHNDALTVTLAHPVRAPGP

SHC1-PTB (Homo sapiens) [19] = target: SHC1-PTB (Homo sapiens) (UniProt P29353); conditions: cited from earlier work; remark: listed apart in the source
VAV2 (Homo sapiens) = VAV2 (Homo sapiens) (UniProt P52735); conditions: cited from earlier work
Chain of VAV2 (Homo sapiens) (P52735 668-772): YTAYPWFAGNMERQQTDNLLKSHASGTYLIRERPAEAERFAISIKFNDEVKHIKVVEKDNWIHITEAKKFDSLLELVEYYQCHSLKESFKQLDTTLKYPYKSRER

SYK-NC (Homo sapiens) [20] = target: SYK-NC (Homo sapiens) (UniProt P43405); conditions: cited from earlier work; remark: listed apart in the source
ABL2 (Homo sapiens) [21] = target: ABL2 (Homo sapiens) (UniProt P42684); conditions: cited from earlier work; remark: listed apart in the source
CRK (Homo sapiens) [22] = target: CRK (Homo sapiens) (UniProt P46108); conditions: cited from earlier work; remark: listed apart in the source
RASA1-N (Homo sapiens) [23] = target: RASA1-N (Homo sapiens) (UniProt P20936); conditions: cited from earlier work; remark: listed apart in the source
CRKL (Homo sapiens) [24] = target: CRKL (Homo sapiens) (UniProt P46109); conditions: cited from earlier work; remark: listed apart in the source
[25] = target: PIK3R1 N-terminal SH2 domain (human); experiment: SPR; Biacore 3000; 6X His SH2 proteins held on a Ni-NTA chip, dye-free peptides in solution, equilibrium
[26] = target: PIK3R3 C-terminal SH2 domain (human); experiment: as above
BLK SH2 domain (human) = BLK SH2 domain (human) (UniProt P51451); experiment: peptide or protein array; SH2/PTB proteins spotted on aldehyde slides, rhodamine peptide titrated in buffer B (20 mM HEPES, 100 mM KCl, 0.1% Tween-20, 5 mM DTT, pH 7.8), 1 h at room temperature; replicate assays
Chain of BLK SH2 domain (human) (P51451 124-220): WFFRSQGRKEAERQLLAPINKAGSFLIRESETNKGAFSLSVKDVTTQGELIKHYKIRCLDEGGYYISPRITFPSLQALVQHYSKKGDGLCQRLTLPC

[27] = target: SH3BP2 SH2 domain (human) (UniProt P78314); experiment: as above
Chain of SH3BP2 SH2 domain (human) (P78314 457-555): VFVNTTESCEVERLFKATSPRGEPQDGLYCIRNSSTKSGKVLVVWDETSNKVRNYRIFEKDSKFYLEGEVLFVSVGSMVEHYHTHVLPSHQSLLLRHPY

[28] = target: SYK tandem SH2 domains (human); experiment: as above
YES1 SH2 domain (human) = YES1 SH2 domain (human) (UniProt P07947); experiment: as above
Chain of YES1 SH2 domain (human) (P07947 158-255): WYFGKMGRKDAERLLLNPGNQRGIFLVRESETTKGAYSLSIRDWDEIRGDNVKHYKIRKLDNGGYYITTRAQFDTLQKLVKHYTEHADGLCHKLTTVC

TNS4 (Homo sapiens) = TNS4 (Homo sapiens) (UniProt Q8IZW8); conditions: cited from earlier work
Chain of TNS4 (Homo sapiens) (Q8IZW8 444-561): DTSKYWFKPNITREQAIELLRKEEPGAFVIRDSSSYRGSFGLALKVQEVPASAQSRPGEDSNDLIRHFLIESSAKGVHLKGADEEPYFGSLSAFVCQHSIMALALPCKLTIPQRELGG

HSH2D (Homo sapiens) = HSH2D (Homo sapiens) (UniProt Q96JZ2); conditions: cited from earlier work
Chain of HSH2D (Homo sapiens) (Q96JZ2 29-130): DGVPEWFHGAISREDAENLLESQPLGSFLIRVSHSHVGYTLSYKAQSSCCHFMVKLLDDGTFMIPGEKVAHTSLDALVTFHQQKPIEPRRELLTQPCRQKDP

SYK-N (Homo sapiens) [29] = target: SYK-N (Homo sapiens) (UniProt P43405); conditions: cited from earlier work
PLCG2-NC (Homo sapiens) = PLCG2-NC (Homo sapiens) (UniProt P16885); conditions: cited from earlier work
Chain of PLCG2-NC (Homo sapiens) (P16885 527-740): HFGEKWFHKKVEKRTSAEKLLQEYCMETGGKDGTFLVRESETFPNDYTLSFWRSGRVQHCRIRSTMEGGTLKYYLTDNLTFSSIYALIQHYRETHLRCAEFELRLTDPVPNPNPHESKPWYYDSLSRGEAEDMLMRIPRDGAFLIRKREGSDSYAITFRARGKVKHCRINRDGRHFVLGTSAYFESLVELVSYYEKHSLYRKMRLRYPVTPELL

ABL2 (Homo sapiens) [30] = target: ABL2 (Homo sapiens) (UniProt P42684); conditions: cited from earlier work; remark: listed apart in the source
CRKL (Homo sapiens) [31] = target: CRKL (Homo sapiens) (UniProt P46109); conditions: cited from earlier work; remark: listed apart in the source
ABL2 (Homo sapiens) [32] = target: ABL2 (Homo sapiens) (UniProt P42684); conditions: cited from earlier work; remark: listed apart in the source
SHC1-PTB (Homo sapiens) [33] = target: SHC1-PTB (Homo sapiens) (UniProt P29353); conditions: cited from earlier work; remark: listed apart in the source
SYK-N (Homo sapiens) [34] = target: SYK-N (Homo sapiens) (UniProt P43405); conditions: cited from earlier work; remark: listed apart in the source
SRC (Homo sapiens) [35] = target: SRC (Homo sapiens) (UniProt P12931); conditions: cited from earlier work; remark: listed apart in the source
YES1 (Homo sapiens) [36] = target: YES1 (Homo sapiens) (UniProt P07947); conditions: cited from earlier work; remark: listed apart in the source

Substance: ErbB1 pY978 phosphopeptide, dye-free
- Kd [1]: 430 nM

Substance: PIK3R1 N-terminal SH2 domain (domain or fragment)
- Kd [2]: 6960 nM
- Kd [3]: 2510 nM
- Kd [4]: 256 nM

Substance: …pYHNQPLNPd
- apparent Kd (screen) (ABL2 (Homo sapiens) [5]): 62 nM
- apparent Kd (screen) (GRB2 (Homo sapiens)): 2000 nM
- apparent Kd (screen) (ABL1 (Homo sapiens)): 523 nM
- apparent Kd (screen) (NCK2 (Homo sapiens)): 2000 nM
- apparent Kd (screen) (SHC1-PTB (Homo sapiens) [6]): 321 nM

Substance: …pYQDPHSTAd
- apparent Kd (screen) (SYK-NC (Homo sapiens) [7]): 981 nM
- apparent Kd (screen) (ABL2 (Homo sapiens) [8]): 74 nM
- apparent Kd (screen) (ABL2 (Homo sapiens) [9]): 133 nM
- apparent Kd (screen) (CRK (Homo sapiens) [10]): 1230 nM
- apparent Kd (screen) (RASA1-N (Homo sapiens) [11]): 1320 nM
- apparent Kd (screen) (YES1 (Homo sapiens) [12]): 378 nM
- apparent Kd (screen) (BMX (Homo sapiens)): 1070 nM
- apparent Kd (screen) (SHB (Homo sapiens)): 991 nM
- apparent Kd (screen) (CRKL (Homo sapiens) [13]): 2000 nM
- apparent Kd (screen) (TNS1 (Homo sapiens)): 1280 nM

Substance: …pYSADPTVFd
- apparent Kd (screen) (SRC (Homo sapiens) [14]): 504 nM

Substance: SHC2 PTB domain (from UniProt P98077 1-582) (domain or fragment)
- Kd [15]: 5420 nM

Substance: …pYLSEFSLK
- apparent Kd (screen) (SYK-NC (Homo sapiens) [16]): 1670 nM
- apparent Kd (screen) (ABL2 (Homo sapiens) [17]): 221 nM
- apparent Kd (screen) (PLCG1-NC (Homo sapiens)): 2000 nM
- apparent Kd (screen) (SH2B3 (Homo sapiens)): 2000 nM
- apparent Kd (screen) (PIK3R3-NC (Homo sapiens)): 2000 nM
- apparent Kd (screen) (RASA1-N (Homo sapiens) [18]): 709 nM
- apparent Kd (screen) (SLA2 (Homo sapiens)): 2000 nM
- apparent Kd (screen) (PIK3R2-NC (Homo sapiens)): 2000 nM
- apparent Kd (screen) (SHC1-PTB (Homo sapiens) [19]): 24 nM
- apparent Kd (screen) (VAV2 (Homo sapiens)): 2000 nM

Substance: …pYMTPMRDKd
- apparent Kd (screen) (SYK-NC (Homo sapiens) [20]): 330 nM
- apparent Kd (screen) (ABL2 (Homo sapiens) [21]): 18 nM
- apparent Kd (screen) (CRK (Homo sapiens) [22]): 29 nM
- apparent Kd (screen) (RASA1-N (Homo sapiens) [23]): 27 nM
- apparent Kd (screen) (CRKL (Homo sapiens) [24]): 65 nM

Substance: ErbB2 pY685 phosphopeptide, dye-free
- Kd [25]: 13400 nM
- Kd [26]: 1520 nM

Substance: ErbB1 pY900 phosphopeptide, dye-free
- Kd [26]: 1470 nM
- Kd [1]: 10900 nM

Substance: ErbB4 pY1301 phosphopeptide (18-mer), rhodamine-labelled, for protein microarrays
- Kd (BLK SH2 domain (human)): 1180 nM and 1600 nM
- Kd [27]: 1180 nM and 1610 nM
- Kd [28]: 801 nM and 1170 nM
- Kd (YES1 SH2 domain (human)): 1370 nM and 4860 nM

Substance: …pYTHQSDVWd
- apparent Kd (screen) (TNS4 (Homo sapiens)): 299 nM
- apparent Kd (screen) (HSH2D (Homo sapiens)): 1130 nM

Substance: …pYVNEPLYLd
- apparent Kd (screen) (SYK-N (Homo sapiens) [29]): 6 nM

Substance: …pYNADGGKMd
- apparent Kd (screen) (PLCG2-NC (Homo sapiens)): 1140 nM

Substance: …pYRAPTSTId
- apparent Kd (screen) (ABL2 (Homo sapiens) [30]): 1230 nM
- apparent Kd (screen) (CRKL (Homo sapiens) [31]): 1240 nM

Substance: …pYLGLDVPV
- apparent Kd (screen) (ABL2 (Homo sapiens) [32]): 210 nM
- apparent Kd (screen) (SHC1-PTB (Homo sapiens) [33]): 277 nM

Substance: ErbB4 pY833 phosphopeptide, dye-free
- Kd [1]: 3460 nM

Substance: PIK3R2 tandem SH2 domains (from UniProt O00459 1-728) (domain or fragment)
- Kd [15]: 6930 nM

Substance: …pYVREHKDNd
- apparent Kd (screen) (SYK-N (Homo sapiens) [34]): 559 nM

Substance: …pYKGLWIPEd
- apparent Kd (screen) (SRC (Homo sapiens) [35]): 579 nM
- apparent Kd (screen) (YES1 (Homo sapiens) [36]): 540 nM
